In article PMC9253517 (The Journal of Experimental Medicine, 2022):
Substitutions are numbered along the chain they refer to.

B1: JN021 (antibody, V domains shown)
VH: QLQLQESGPGLVKPSETLSLTCTVSGGSIRSRGYYWGWIRQPPGKGLEWIGSIDYSGSTYYNPSLKSRVTISVDTSKNQFSLKLNSVTAADTAVFYCASSADTYYDILTGYYKGWYIDYWGQGTLVTVSS
VL: LTQPRSVSGSPGQSVTISCAGTSSDVGGYNYVSWYQQHPGKAPKLMIFDVTKRPSGVPDRFSGSKSGNTASLTISGLQAEDDADYYCCSYAGSYTYWVFGGGTKLTVL
B2: JN145 (antibody, V domains shown)
VH: QVQLVQSGAEVKKPGASVKVSCKASGYTFTSYYMHWVRQAPGQGLEWMGIINPSGGSTSYAQKFQGRVTMTRDTSTSTVYMELSSLRSEDTAVYYCARGESDDYVWGSYRYTNNWFDPWGQGTLVTVSS
VL: not shown
B3: JN006 (antibody, V domains shown)
VH: VQLVESGGGVVQPGRSLRLSCAASGFTFSNYVMHWVRQAPGKGLEWVAVMSSDGSIKYYADSVKGRFTVSRDNSKNTLYLQMNSLRPEDTAVYYCARGGRYSGSHTGDAFDIWGQGTMVTVSS
VL: SYELTQPPSVSVSPGQTARITCSGDALPNRYSYWYQQKPGQAPVLVIFKDSERPSGIPERFSGSSSGTTVTLTISGVQAEDEADYYCQSADSSGTWVFGGGTKLTVL
B4: JN133 (antibody, V domains shown)
VH: QLQLQESGPGLVKPSETLSLTCTVSGGSISSGSNYWGWIRQPPGKGLEWIGTIYYSGATYFSPSLKNRITISVDTSKNQFSLRLSSVIAADTAVYYCARLPFQNYYFYGMDVWGKGTTVTVSS
VL: B3 VL with A26V, N29K, R30Q, S32A, F48S, A79G, Y86H
B5: JN130 (antibody, V domains shown)
VH: QVQLQESGPGLVKPSQTLSLTCTVSGGSISSGDYYWSWIRQPPGKGLEWIGYIYYSGSTYYNPSLKSRVTISVDTSKNQFSLKLSSVTAADTAVYYCARVLRFYDNIWENYRLPRYFDYWGQGTLVTVSS
VL: QSALTQPRSVSGSPGQSVSISCTGTSSDVGGSEYVSWYQQHPGKAPKLMIYDVNQRPSGVPARFSGSKSGNTASLTISGLQAEDEADYYCCSYAGTYNFEVFGGGTKLSVL
B6: JN020 (antibody, V domains shown)
VH: EVQLVESGGDLVRRGESLRLSCAASGFTFSNHWMTWVRQAPGRGLEWVANIEGDGSDKYYVDSVKGRFTISRDNARNLLFLYMNALRGDDTAIYYCARHSATYHGLDQWGQGTLVTVSS
VL: LTQPRSVSGSPGQSVTISCTGTSSDVGGYIFVSWYQRHPGKAPKLILFHVDKRPSGVPDRFSGSRSGNTASLTISGLQTEDEADYDCYSFAGTIWMFGGGTRLTVL
B7: JN144 (antibody, V domains shown)
VH: QVQLVQSGPEVKKPGASVKVSCKASDYTFTSYDIIWVRQAPGQGLEWMGWISTHNGNTNYAQELQGRVTMTRETSTSTAHMELRSLRSDDTAVYYCARGPNRYLRLLEWSIPADWFFDLWGRGTLVTVSS
VL: EIVLTQSPGTLSLSPGDRATLSCRASQSVPSTSIAWYQQKPGQAPRLLFHGAASRAIGIPDRFSGSGSGTDFTLTISRLEPEDSAVYYCQHCGDSPPLLTFGPGTKVDIK
B8: JN106 (antibody, V domains shown)
VH: EVQLVESGGGLVQPGGSLRLSCAASGFTFSENWMSWVRQAPGKGLEWVGNIKQDASEKYFVDSVKGRFTISRDNAKNSLYLQMDSLRAEDTAVYFCARWGYSNSYYYIDCWGQGTLVTVSS
VL: QAVVTQEPSFSVSPGGTVTFTCGLTSGSVSASNHPSWYQQTPGQAPRTLMYGTNIRSSGVPDRFSGSILGNKAALTITGAQADDECDYYCVLYIGDGVWVFGGGTKLTVL
B9: JN142 (antibody, V domains shown)
VH: QVQLVQSGAEVKKPGASVKVSCKASGYTFTSYDINWVRQATGQGLEWMGWMNPNSGNTGYAQKFQGRVTMTRNTSISTAYMELSSLRSEDTAVYYCARVLAPYDYVWGSYRYDNWFDPWGQGTLVTVSS
VL: QSVLTQPPSVSAAPGQKVTISCSGSSSNIGNNYVSWYQQLPGTAPKLLIYDNNKRPSGIPDRFSGSKSGTSATLGITGLQTGDEADYYCGTWDSSLSALFGGGTKLTVL
B10: JN231 (antibody, V domains shown)
VH: VQLVESGGGVVQPGRSLRLSCAASGFTFSSYGMHWVRQAPGKGLEWVAVISYDGSNKYYADSVKGRFTISRDNSKNTLYLQMNSLRAEDTAVYYCAKDSRYYDFWSGYLGPDEYYYYYYMDVWGKGTTVTVSS
VL: not shown
B11: JN011 (antibody, V domains shown)
VH: VQLVESGGGVVQPGRSLRLSCAASGFTFSSYAMHWVRQAPGKGLEWVAVISYDGSNKYYADSVKGRFTISRDNSKNTLYLQMNSLRAEDTAVYYCAGSLGEEYYYYYYGMDVWGQGTTVTVSS
VL: NFMLTQPHSVSESPGKTVTISCTGSSGSIASNYVQWYQQRPGSAPTTVIYEDNQRPSGVPDRFSGSIDSSSNSASLTISGLKTEDEADYYCQSYDSSNWVFGGGTKLTVL
B12: JN019 (antibody, V domains shown)
VH: VQLVESGGGVVQPGRSLRLSCAASGFTFSNYGMHWVRQAPGKGLEWVAFISYDANHKYSTNSVKGRFTISRDNSKNTLYLQMNSLRTEDTAVYYCASMDGLHPGTAQFYGMDVWGQGTTVTVSS
VL: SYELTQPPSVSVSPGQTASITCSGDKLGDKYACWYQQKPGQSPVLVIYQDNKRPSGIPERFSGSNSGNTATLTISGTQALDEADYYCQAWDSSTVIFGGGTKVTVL
B13: JN024 (antibody, V domains shown)
VH: QVQLQESGPKLMKPSQTLSLTCAVSGASIRSGGYYWSWIRQHPGKGLEWIGYIYYSGSTYYNPSLKSRATISVDTSKNQFSLKLTSVTAADTAVYYCARAGRWFGELFRGGGYFDYWGLGTLVTVSS
VL: AIRMTQSPSSLSASVGDRVTITCQASQDIGIFLNWYQQKSGEAPKLLIYDASNLETGVPSRFSGSGSGTDFIFIIRNLQPEDSATYYCQQHNHLPRVTFGPGTKVDIK
B14: JN112 (antibody, V domains shown)
VH: QVQLQESGPGLVKPSQTLSLTCTVSGGSISSGDYYWSWIRQPPGKGLEWIGYIYYSGSTYYNPSLKSRVTISVDTSKNQFSLKLSSVTAADTAVYYCAREGTIFGEPFDYWGQGTLVT
VL: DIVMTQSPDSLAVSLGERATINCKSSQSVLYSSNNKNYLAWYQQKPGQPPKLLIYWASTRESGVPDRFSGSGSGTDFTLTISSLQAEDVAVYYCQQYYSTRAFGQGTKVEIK
B15: JN220 (antibody, V domains shown)
VH: VQLVESGGGVVQPGRSLRLSCAASGFTFSSYTMHWVRQAPGKGLEWVAVISYDGSNKYYADSVKGRFTISRDNSKNTLYLQMNSLRAEDTAVYYCAISSGWYSMSGAFDIWGQGTMVTVSS
VL: QSALTQPRSVSGSPGQSVTISCTGTSSDVGGYNYVSWYQQHPGKAPKLMIYDVSKRPSGVPDRFSGSKSGNTASLTISGLQAEDEADYYCCSYAGSYRVFGTGTKVTVL
B16: JN131 (antibody, V domains shown)
VH: EVQLVESGGGLVKPGGSLRLSCAASGFTFNSYSMNWVRQAPGKGLEWVSSISSSSNFIYYADSVKGRFTISRDNAKNSLYLQMNSLRAEDTAMYYCARDPGYRSSWFEVYYFDYWGPGTLVTVSS
VL: QSALTQPASVSGSPGQSITISCTGTSSDVGSYNLVSWYQQHPGKAPKLVIYEVTKRPSGVSNRFSGSKSGNTASLTISGLQAEDEADYYCCSYGGSTTSPYVFGTGTKVTVL
B17: JN108 (antibody, V domains shown)
VH: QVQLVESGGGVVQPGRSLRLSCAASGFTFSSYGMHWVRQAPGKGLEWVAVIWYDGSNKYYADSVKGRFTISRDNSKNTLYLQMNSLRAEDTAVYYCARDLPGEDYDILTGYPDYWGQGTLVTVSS
VL: QSALTQPASVSGSLGQSITISCTGTSSDVGSYNLVSWYQQHPGKVPKLMIYEANKRASGVSDRFSGSKTDNTASLTISGLQAEDEADYYCCSYAGSRTHVIFGGGTKLTV
B18: JN111 (antibody, V domains shown)
VH: QVQLQESGPGLVRPSETLSLTCTVSGASITSYFWTWIRQAPGKGLEWIGYIYYSGSTNYNPSLKSRGTISVDTSKNQFSLKLSSVTAADTAVYYCARGMSDVVIVPAALSFGYDDAYYYYYYMDVWGKGTTVTVSS
VL: B17 VL

What was measured:
[1] = target: SARS-CoV-2 Wuhan-Hu-1 NTD (SARS-CoV-2, UniProt P0DTC2); experiment: cell-based or functional assay
[2] = target: SARS-CoV-2 Wuhan-Hu-1 NTD (SARS-CoV-2, UniProt P0DTC2 14-307); experiment: cell-based or functional assay

Binder	neutralisation IC50, WT (293TAce2) [1]	neutralisation IC50, WT (293TAce2) [2]
B1	> 1000 ng/mL	
B2		688 ng/mL
B3	> 1000 ng/mL	
B4		> 1000 ng/mL
B5		> 1000 ng/mL
B6	> 1000 ng/mL	
B7		> 1000 ng/mL
B8		> 1000 ng/mL
B9		> 1000 ng/mL
B10	> 1000 ng/mL	
B11	> 1000 ng/mL	
B12	34.5 ng/mL	
B13	> 1000 ng/mL	
B14	> 1000 ng/mL	
B15	> 1000 ng/mL	
B16		> 1000 ng/mL
B17	> 1000 ng/mL	
B18	> 1000 ng/mL	
